# Measurements published in patent US20260069728A1, “MULTI-TARGETING COMPOUND AND USE THEREOF” (Chengdu Shetai Medical Technology Co., Ltd., priority 2023, published 2026).
# Read-outs that look alike come from different tables or passages of the source.
# Key:
# [1] = Stability of radioligands in PBS buffer (radio-HPLC); format: physicochemical
# Protocol: The purpose of this experiment was to test the stability of the radioligands under buffer conditions simulating the physiological environment. This stability is a prerequisite for further animal experiments.
# (§1) 1. ^68Ga-SDYD01: ^68Ga-SDYD01 was added to PBS buffer (pH=7.4) and incubated at 37° C. The mixture samples were taken for radio-HPLC analysis after 0.5 hours, 1 hour, and 2 hours of incubation. The stability of ^68Ga-SDYD01 in PBS buffer: the radiochemical purities of ^68Ga-SDYD01 after incubation in PBS for 0.5 hours, 1 hour, and 2 hours were 98%, 97%, and 97%, respectively (FIG. 4).
# (§2) 2. ^177Lu-SDYD01: ^177Lu-SDYD01 was added to PBS buffer (pH=7.4) and incubated at 37° C. The mixture samples were taken for radio-HPLC analysis after 24 hours, 48 hours, and 120 hours of incubation. The stability of ^177Lu-SDYD01 in PBS buffer: the radiochemical purities of ^177Lu-SDYD01 after incubation in PBS for 24 hours, 48 hours, and 120 hours were 97%, 96%, and 94%, respectively (FIG. 5).
# as §1, with “^68Ga-SDYD02: ^68Ga-SDYD02” for “^68Ga-SDYD01: ^68Ga-SDYD01”, “^68Ga-SDYD02” for “^68Ga-SDYD01”, “96%, 95%” for “98%, 97%,”, “93%,” for “97%,”, “10).” for “4).”
# as §2, with “^177Lu-SDYD02: ^177Lu-SDYD02” for “^177Lu-SDYD01: ^177Lu-SDYD01”, “^177Lu-SDYD02” for “^177Lu-SDYD01”, “95%, 91%” for “97%, 96%,”, “87%,” for “94%,”, “11).” for “5).”
# as §1, with “1. ^68Ga-SDYD05: ^68Ga-SDYD05” for “1. ^68Ga-SDYD01: ^68Ga-SDYD01”, “of ^68Ga-SDYD05” for “of ^68Ga-SDYD01”, “98%, 96%” for “98%, 97%,”, “and 95%,” for “and 97%,”, “(FIG. 16).” for “(FIG. 4).”
# as §2, with “^177Lu-SDYD05: ^177Lu-SDYD05” for “^177Lu-SDYD01: ^177Lu-SDYD01”, “^177Lu-SDYD05” for “^177Lu-SDYD01”, “97%, 96% and” for “97%,”, “96%,” for “96%, and 94%,”, “17).” for “5).”
# 1. ^68Ga-SDYD06: ^68Ga-SDYD06 was added to PBS buffer (pH=7.4) and incubated at 37° C. The mixture samples were taken for radio-HPLC analysis after 0.5, 1, and 2 hours of incubation. The stability of ^68Ga-SDYD06 in PBS buffer: the radiochemical purities of ^68Ga-SDYD06 after incubation in PBS for 0.5 hours, 1 hour, and 2 hours were 96%, 94% and 93%, respectively (FIG. 22).
# 2. ^177Lu-SDYD06: ^177Lu-SDYD06 was added to PBS buffer (pH=7.4) and incubated at 37° C. The mixture samples were taken for radio-HPLC analysis after 24 hours, 48 hours, and 120 hours of incubation.
# 1. ^68Ga-SDYD03: ^68Ga-SDYD03 was added to PBS buffer (pH=7.4) and incubated at 37° C. The mixture samples were taken for radio-HPLC analysis after 0.5 hours, 1 hour, and 2 hours of incubation. The stability of ^68Ga-SDYD03 PBS in PBS buffer: the radiochemical purities of ^68Ga-SDYD03 after incubation in PBS for 0.5 hours, 1 hour, and 2 hours were 96%, 96% and 95%, respectively (FIG. 27).
# as §2, with “^177Lu-SDYD03: ^177Lu-SDYD03” for “^177Lu-SDYD01: ^177Lu-SDYD01”, “^177Lu-SDYD03” for “^177Lu-SDYD01”, “are 99%, 96%” for “were 97%, 96%,”, “28). […]” for “5).”
# [2] = Small animal PET imaging and biodistribution study; format: in vivo, NSG mice; details: mouse, in vivo, iv, 7.4 MBq
# Protocol: (§3) Eleven NSG mice bearing subcutaneous xenograft tumors (U87 MG cells), with tumor sizes approximately 150 mm^3, were used. The mice were intravenously injected via the tail vein with approximately 7.4 MBq of ^68Ga-labeled SDYD01, SDYD02, SDYD03. SDYD04, SDYD05, SDYD06, SDYD07, SDYD08 or SDYD07-1 compounds, or with ^[…]-labeled FAPI-04 or FAP2286 compounds as tracers. Micro PET/CT imaging was performed at 30 min, 60 min, and 120 min post-injection. Static images were acquired in 3D mode for 20 minutes. Reconstruction was performed using the OSEM3D/MAP method to obtain attenuation-corrected PET/CT fusion images.
# (§4) NSG mice bearing subcutaneous xenograft tumors (U87 MG cells) were divided into 3 groups, with 11 mice in each group. They were intravenously injected via the tail vein with ^68Ga-labeled SDYD01, SDYD02, SDYD03. SDYD04, SDYD05, SDYD06. SDYD07, SDYD08, or SDYD07-1 compounds, or with ^68Ga-labeled FAPI-04 or FAP2286 compounds as tracers. Tumor-bearing mice injected with ^68Ga-labeled compounds SDYD01, SDYD02, SDYD03, SDYD04, SDYD05, SDYD06, FAPI-04, as well as 68Ga-labeled compounds FAPI-04 and FAP2286, were euthanized at 30 min. 60 min, and 120 min, respectively, for each group. Tumor-bearing mice injected with ^68Ga-labeled compounds SDYD07, SDYD08, and SDYD07-1 were euthanized at 30 min, 60 min, and 90 min, respectively, for each group. Blood, tumors, and other major organs and tissues were collected, weighed, and measured for radioactivity. After radioactive decay correction, the standardized uptake value (SUV) and percentage injected dose per gram of tissue (% ID/g) were calculated. In these figures, (a) represents the PET/CT imaging results, (b) represents the biodistribution results, and (c) represents the relative ratios of radioactive uptake in tumor versus normal tissues.
# [3] = tested on: subcutaneous xenograft tumors (U87 MG cells); experiment: Small animal PET imaging and biodistribution study; format: in vivo, NSG mice
# Protocol: as §3, §4
# [4] = absolute uptake value in the tumor
structure (smiles),measurement,setting,value
"CCCCCC(=O)N[C@@H]1CSCc2cc(CSCCNC(=O)[C@@H](CCCCNC(=O)CN3CCN(CC(=O)O)CCN(CC(=O)O)CCN(CC(=O)O)CC3)NC(=O)COCCOCCNC(=O)COCCOCCNC(=O)CCN3C(=O)CC(SCCNC(=O)CCC(=O)N[C@@H](CCCNC(=N)N)C(=O)N[C@@H](CCCNC(=N)N)C(=O)N[C@@H](Cc4ccc5ccccc5c4)C(=O)N[C@@H]4CSSC[C@@H](C(=O)N[C@@H](CCCNC(=N)N)C(N)=O)NC(=O)[C@H](CCCNC(N)=O)NC(=O)[C@H](CCCNC(=N)N)NC(=O)[C@H](Cc5ccc(O)cc5)NC(=O)[C@@H]5CCCN5C(=O)[C@H](CCCCN)NC(=O)[C@H](CCCCN)NC(=O)[C@H](CCCNC(N)=O)NC(=O)[C@H](Cc5ccc(O)cc5)NC4=O)C3=O)cc(c2)CSC[C@@H](C(=O)O)NC(=O)[C@H](Cc2ccccc2)NC(=O)[C@H](CCC(N)=O)NC(=O)C([C@@H](C)O)NC(=O)[C@@H]2CCCN2C(=O)[C@@H]2CCCN2C1=O (single isomer, unassigned) [^177Lu-SDYD02, metal not drawn]",stability in PBS buffer (in words),[1],quite stable in PBS buffer
"CC(C)CC(CC(C)C)NC(=O)[C@H](Cc1cnc[nH]1)NC(=O)CNC(=O)C(NC(=O)[C@H](C)NC(=O)[C@H](Cc1c[nH]c2ccccc12)NC(=O)[C@H](CCC(N)=O)NC(=O)[C@@H](Cc1ccccc1)NC(=O)COCC(=O)Nc1ccc(CNC(=O)COCCOCCNC(=O)COCCOCCNC(=O)[C@H](CCCCNC(=O)CN2CCN(CC(=O)O)CCN(CC(=O)O)CCN(CC(=O)O)CC2)NC(=O)CCC(=O)N2CCN(CCCOc3ccc4nccc(C(=O)NCC(=O)N5CC(F)(F)C[C@H]5C#N)c4c3)CC2)cc1)C(C)C (single isomer, unassigned) [^68Ga-SDYD03, metal not drawn]",tissue uptake at 0.5 h,"[2]; NSG, total radioactivity, 30 minutes post-injection, read-out: absolute uptake value in the tumor",≥ 10 %ID/g
same,tissue uptake at 1 h,"[2]; NSG, total radioactivity, 60 minutes post-injection, read-out: absolute uptake value in the tumor",≥ 10 %ID/g
same,radioactive uptake in the tumor sites (in words),"[3]; tail vein injection, U87 MG tumor-bearing NSG mice",significant radioactive uptake in the tumor sites
same,stability in PBS buffer (in words),"[1]; PBS buffer pH=7.4, 37° C.",quite stable in PBS buffer
"CCCCCC(=O)N[C@@H]1CSCc2cc(CSCCNC(=O)COCCOCCNC(=O)COCCOCCNC(=O)CSC3CC(=O)N(CCC(=O)N[C@H](CCCCNC(=O)CN4CCN(CC(=O)O)CCN(CC(=O)O)CCN(CC(=O)O)CC4)C(=O)NCc4ccc(C(=O)NCCC[C@@H]5C(=O)N[C@@H](CCCNC(=N)N)C(=O)N[C@@H](Cc6ccc7ccccc7c6)C(=O)NCC(=O)N[C@H](Cc6ccc(O)cc6)C(=O)N5C)cc4)C3=O)cc(c2)CSC[C@@H](C(=O)O)NC(=O)[C@H](Cc2ccccc2)NC(=O)[C@H](CCC(N)=O)NC(=O)C([C@@H](C)O)NC(=O)[C@@H]2CCCN2C(=O)[C@@H]2CCCN2C1=O (single isomer, unassigned) [^177Lu-SDYD06, metal not drawn]",stability in PBS buffer (in words),[1],quite stable in PBS buffer
"CCCCCC(=O)N[C@H]1CSCc2cc(CSCCNC(=O)[C@H](CCCCNC(=O)CCN3C(=O)CC(SCC(=O)NCCOCCOCCOCCOCCC(=O)NCCCC[C@@H]4NC(=O)[C@@H](Cc5ccc(O)cc5)NC(=O)[C@H](CC(=O)O)NC(=O)CNC(=O)[C@H](CCCNC(=N)N)NC4=O)C3=O)NC(=O)CCC(C(=O)O)N3CCN(CC(=O)O)CCN(CC(=O)O)CCN(CC(=O)O)CC3)cc(c2)CSC[C@@H](C(=O)O)NC(=O)[C@H](Cc2ccccc2)NC(=O)[C@H](CCC(N)=O)NC(=O)C([C@@H](C)O)NC(=O)[C@@H]2CCCN2C(=O)[C@@H]2CCCN2C1=O (single isomer, unassigned) [^177Lu-SDYD08, metal not drawn]",stability in PBS buffer (in words),[1],quite stable in PBS buffer
"CC(C)CC(CC(C)C)NC(=O)[C@H](Cc1cnc[nH]1)NC(=O)CNC(=O)C(NC(=O)[C@H](C)NC(=O)[C@H](Cc1c[nH]c2ccccc12)NC(=O)[C@H](CCC(N)=O)NC(=O)[C@@H](Cc1ccccc1)NC(=O)COCC(=O)Nc1ccc(CNC(=O)COCCOCCNC(=O)COCCOCCNC(=O)[C@H](CCCCNC(=O)CN2CCN(CC(=O)O)CCN(CC(=O)O)CCN(CC(=O)O)CC2)NC(=O)CCC(=O)N2CCN(CCCOc3ccc4nccc(C(=O)NCC(=O)N5CC(F)(F)C[C@H]5C#N)c4c3)CC2)cc1)C(C)C (single isomer, unassigned) [^177Lu-SDYD03, metal not drawn]",stability in PBS buffer (in words),"[1]; PBS buffer pH=7.4, 37° C.",quite stable in PBS buffer
"N#C[C@@H]1CC(F)(F)CN1C(=O)CNC(=O)c1ccnc2ccc(OCCCN3CCN(C(=O)CCOCCOCCNC(=O)CCN4C(=O)CC(SC[C@H](NC(=O)CN5CCN(CC(=O)O)CCN(CC(=O)O)CCN(CC(=O)O)CC5)C(=O)NCCCC[C@@H]5NC(=O)[C@@H](Cc6ccc(O)cc6)NC(=O)[C@H](CC(=O)O)NC(=O)CNC(=O)[C@H](CCCNC(=N)N)NC5=O)C4=O)CC3)cc12 (stereo partly shown) [^68Ga-SDYD07-1, metal not drawn]",tissue uptake at 0.5 h,[2]; [4],~3 %ID/g
same,tissue uptake at 1 h,[2]; [4],~3 %ID/g
same,radioactive uptake in non-target organs (in words),"[3]; mouse, in vivo",relatively high non-specific uptake in both the kidneys and liver
same,tumor uptake after 60 minutes (in words),"[3]; mouse, in vivo",decreased significantly after 60 minutes
"CN1C(=O)[C@@H](Cc2ccc(O)cc2)NC(=O)CNC(=O)[C@H](Cc2ccc3ccccc3c2)NC(=O)[C@H](CCCNC(=N)N)NC(=O)[C@H]1CCCNC(=O)c1ccc(CNC(=O)[C@H](CCCCNC(=O)CN2CCN(CC(=O)O)CCN(CC(=O)O)CCN(CC(=O)O)CC2)NC(=O)CCC(=O)NCCOCCOCC(=O)NCCOCCOCC(=O)N2CCN(CCCOc3ccc4nccc(C(=O)NCC(=O)N5CC(F)(F)C[C@H]5C#N)c4c3)CC2)cc1 [^177Lu-SDYD05, metal not drawn]",stability in PBS buffer (in words),[1],quite stable in PBS buffer
